Test results published in US20220389077A1, “ALLOGENEIC CELL COMPOSITIONS AND METHODS OF USE” (Poseida Therapeutics, Inc., priority 2018, published 2022).

Experiments:
Type in all cases: cell-based, human
[1] = system: Lag3, PD1, and Tim3; assay: Flow cytometry for exhaustion molecules; conditions: compared to mock T cells
Description: Mock (WT T cells), WT CAR-T cells, DKO CAR-T cells, DKO CAR-T cells+CD2z, and DKO CAR-T cells+CD28z were examined by flow cytometry for the expression of important exhaustion molecules Lag3, PD1, and Tim3. […] This phenotype may have a negative impact on the in vivo functionality of these CAR T cells since they appear to be more exhausted.

[2] = system: CAR-T cells; assay: Expansion of CAR-T cells with CSR delivered transiently by mRNA or stably by piggyBac; conditions: for expansion of CAR-T cells (total live CAR-T cells): 19 day culture, BCMA CAR, CSR transient or stable
Description: FIG. 18 is a graph showing that delivery of CSR enhances the expansion of CAR-T cells. CSRs were delivered to CAR-T cells either transiently by mRNA or stably by piggyBac®. Pan T cells isolated from the blood of a normal donor were genetically modified using the piggyBac® DNA modification system and the standard Poseida process. Cells were co-electroporated in a single reaction with mRNA encoding the Super piggyBac™ transposase enzyme (SPB), a transposon encoding a BCMA CAR and selection gene, along with an additional mRNA encoding a CSR (either CD28z or CD2z; resulting in transient expression) or a CD19 mRNA control, or, with a transposon encoding a BCMA CAR, selection gene and a CSR (either CD28z or CD2z; resulting in stable expression). The cells were subsequently stimulated with agonist mAbs anti-CD2, anti-CD3 and anti-CD28, and were later selected for genetic modification over the course of a 19 day culture period. At the end of the initial culture period all T cells expressed the CAR, indicating successful selection for genetically-modified cells (data not shown). Bars represent total live CAR-T cells in well and numbers indicate fold-enhancement of expansion above CAR-T cells produced in the absence of a CSR or a CD19 mRNA control.
Pan T cells isolated from healthy donor blood were genetically modified using the piggyBac® DNA modification system in combination with the Cas-CLOVER™ gene-editing system (CC) for the production of allogeneic (Allo) CAR-T cells, or without CC gene-editing for the production of autologous (Auto) CAR-T cells; auto CAR-T cells were produced by nucleofection of an mRNA encoding the super piggyBac® transposase enzyme (SPB) and a transposon encoding a CAR, selection gene and a safety switch. […] Following EP, all cells were subsequently stimulated with a cocktail of agonist mAbs anti-CD2, anti-CD3 and anti-CD28, and were later selected for genetic modification over the course of a 19-day culture period using the selection gene. […]

[3] = system: CD45RA, CD45RO, and CD62L; assay: Memory phenotype by surface CD45RA, CD45RO and CD62L staining; conditions: WT and DKO CAR-T cells
Description: WT CAR-T cells, DKO CAR-T cells, DKO CAR-T cells+CD2z, and DKO CAR-T cells+CD28z were stained for expression of surface CD45RA, CD45RO, and CD62L to define Tscm, Tcm, Tem, and Teff cells; Tscm (CD45RA^+CD45RO^−CD62L^+), Tcm (CD45RA^−CD45RO^+CD62L^+), Tem (CD45RA^−CD45RO^+CD62L^−), Teff (CD45RA^+CD45RO^−CD62L^−). […] This phenotype may have a negative impact on the in vivo functionality of these CAR T cells since they appear to be more differentiated.
Allo CAR-T cells with no CSR and Allo CAR-Ts with CSR that was delivered either stably or transiently were stained for expression of surface CD45RA, CD45RO, and CD62L to define Tscm, Tcm, Tem, and Teff cells; Tscm (CD45RA^+CD45RO^−CD62L), Tcm (CD45RA^−CD45RO^+CD62L^+), Tem (CD45RA^−CD45RO^+CD62L^−), Teff ([…]CD62L^−). All samples were performed in duplicate, and data is shown in bar graph where error bars represent standard deviation.

[4] = system: Allo CAR-T cells; assay: Expansion of Allo CAR-T cells with WT or mutant (D111H) CSR CD2z; conditions: up to 15-day culture; CSR stable or transient
Description: FIG. 24A is a bar graph showing that the delivery of CSR CD2z-D111H mutant enhances the expansion of Allo CAR-T cells. Pan T cells isolated from healthy donor blood were genetically modified using the piggyBac® DNA modification system in combination with the Cas-CLOVER™ gene-editing system (CC) for the production of allogeneic (Allo) CAR-T cells, or without CC gene-editing, as a control, for the production of autologous (Auto) CAR-T without a CSR (No CSR); auto CAR-T cells were produced by nucleofection of an mRNA encoding the super piggyBac™ transposase enzyme (SPB) and a transposon encoding a CAR, selection gene and a safety switch. […] Following EP, all cells were subsequently stimulated with a cocktail of agonist mAbs anti-CD2, anti-CD3 and anti-CD28, and were later selected for genetic modification over the course of up to a 15-day culture period using the selection gene. At the end of the initial culture period, all T cells expressed the CAR, indicating successful selection for genetically-modified cells (data not shown), and then all non-edited TCR-positive cells were depleted via negative selection to yield a population of Allo CAR-T cells that were >99% TCR-negative (data not shown).

| Molecule | expression of exhaustion molecules Lag3, PD1, and Tim3 [1] | expansion of CAR-T cells (total live CAR-T cells) [2] | memory phenotype (Tscm, Tcm, Tem, Teff) [3] | expansion of CAR-T cells compared to CAR-T cells produced without a CSR ([2]; 19-day culture, Auto and Allo CAR-T, CSR stable or mRNA 5, 10, 20 μg) | peak expansion of Allo CAR-T cells compared to Allo CAR-T cells produced without a CSR [4] |
| --- | --- | --- | --- | --- | --- |
| CD28z CSR: chimeric stimulatory receptor: CD28 signal peptide, extracellular, transmembrane and cytoplasmic domains with CD3z intracellular domain (SEQ ID NO: 17060) | significant upregulation of exhaustion markers Lag3, PD1, and Tim3 | a greater degree of expansion | significantly more differentiated, favoring Tcm and Tem cells |  |  |
| CD2z CSR: chimeric stimulatory receptor: CD2 signal peptide, extracellular, transmembrane and cytoplasmic domains with CD3z intracellular domain (SEQ ID NO: 17062) (protein) MSFPCKFVASFLLIFNVSSKGAVSKEITNALETWGALGQDINLDIPSFQMSDDIDDIKWEKTSDKKKIAQFRKEKETFKEKDTYKLFKNGTLKIKHLKTDDQDIYKVSIYDTKGKNVLEKIFDLKIQERVSKPKISWTCINTTLTCEVMNGTDPELNLYQDGKHLKLSQRVITHKWTTSLSAKFKCTAGNKVSKESSVEPVSCPEKGLDIYLIIGICGGGSLLMVFVALLVFYITKRKKQRSRRNDEELETRAHRVATEERGRKPHQIPASTPQNPATSQHPPPPPGHRSQAPSHRPPPPGHRVQHQPQKRPPAPSGTQVHQQKGPPLPRPRVQPKPPHGAAENSLSPSSNRVKFSRSADAPAYKQGQNQLYNELNLGRREEYDVLDKRRGRDPEMGGKPRRKNPQEGLYNELQKDKMAEAYSEIGMKGERRRGKGHDGLYQGLSTATKDTYDALHMQALPPR | little to no expression of exhaustion molecules | a greater degree of expansion | comprised predominantly of exceptionally high levels of favorable Tscm and Tcm cells | a greater degree of expansion | a greater degree of expansion |
